This note sets out measurements from patent US20160238596.

For this data set, the system named is Indicator molecule containing the cleavable sequence GPQGIFGQ with a terminal biotin group connected via a polyethylene glycol spacer/linker (intact).

Active MMP-9 (Alere San Diego), sequence (chain, as listed by the source): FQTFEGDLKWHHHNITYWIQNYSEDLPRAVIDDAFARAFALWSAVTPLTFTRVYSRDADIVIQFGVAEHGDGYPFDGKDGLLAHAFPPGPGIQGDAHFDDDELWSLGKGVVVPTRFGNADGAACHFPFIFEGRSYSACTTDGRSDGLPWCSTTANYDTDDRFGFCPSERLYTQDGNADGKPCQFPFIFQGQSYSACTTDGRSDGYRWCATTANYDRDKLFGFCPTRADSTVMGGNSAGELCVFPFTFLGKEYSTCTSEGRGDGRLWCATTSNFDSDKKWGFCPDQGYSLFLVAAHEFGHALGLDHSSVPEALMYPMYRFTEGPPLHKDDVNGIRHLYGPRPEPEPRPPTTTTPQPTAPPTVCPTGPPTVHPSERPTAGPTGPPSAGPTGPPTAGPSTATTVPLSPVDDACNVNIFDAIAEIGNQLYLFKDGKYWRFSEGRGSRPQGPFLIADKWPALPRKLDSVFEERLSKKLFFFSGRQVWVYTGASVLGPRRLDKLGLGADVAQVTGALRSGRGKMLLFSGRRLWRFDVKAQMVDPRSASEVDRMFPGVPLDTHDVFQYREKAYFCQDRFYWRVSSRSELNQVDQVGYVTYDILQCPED
MMP 2 (Enzo), sequence (chain, as listed by the source): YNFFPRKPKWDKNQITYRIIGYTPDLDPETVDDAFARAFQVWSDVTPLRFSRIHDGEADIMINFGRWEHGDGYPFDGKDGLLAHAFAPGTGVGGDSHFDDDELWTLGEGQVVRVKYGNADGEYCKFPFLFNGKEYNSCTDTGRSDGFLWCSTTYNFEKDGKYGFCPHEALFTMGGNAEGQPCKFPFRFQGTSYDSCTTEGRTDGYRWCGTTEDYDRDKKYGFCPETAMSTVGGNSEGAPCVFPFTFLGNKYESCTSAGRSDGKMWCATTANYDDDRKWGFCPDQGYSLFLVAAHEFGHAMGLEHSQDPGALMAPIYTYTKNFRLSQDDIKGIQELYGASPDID
MMP 9 (Enzo), sequence (chain, as listed by the source): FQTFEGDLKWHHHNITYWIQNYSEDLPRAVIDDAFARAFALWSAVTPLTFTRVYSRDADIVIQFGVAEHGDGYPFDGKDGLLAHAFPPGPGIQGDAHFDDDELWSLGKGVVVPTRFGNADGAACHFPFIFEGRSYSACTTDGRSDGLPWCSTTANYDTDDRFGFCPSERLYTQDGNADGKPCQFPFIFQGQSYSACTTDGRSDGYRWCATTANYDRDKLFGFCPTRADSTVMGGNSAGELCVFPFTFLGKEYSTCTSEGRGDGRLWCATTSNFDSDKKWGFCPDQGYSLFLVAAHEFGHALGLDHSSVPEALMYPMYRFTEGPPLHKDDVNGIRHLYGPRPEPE
MMP 10 (Enzo), sequence (chain, as listed by the source): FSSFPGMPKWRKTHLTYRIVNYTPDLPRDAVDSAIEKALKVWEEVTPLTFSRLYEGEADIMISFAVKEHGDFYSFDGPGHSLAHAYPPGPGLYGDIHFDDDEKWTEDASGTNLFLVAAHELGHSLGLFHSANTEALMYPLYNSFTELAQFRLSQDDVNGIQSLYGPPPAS
MMP 8 (Enzo), sequence (chain, as listed by the source): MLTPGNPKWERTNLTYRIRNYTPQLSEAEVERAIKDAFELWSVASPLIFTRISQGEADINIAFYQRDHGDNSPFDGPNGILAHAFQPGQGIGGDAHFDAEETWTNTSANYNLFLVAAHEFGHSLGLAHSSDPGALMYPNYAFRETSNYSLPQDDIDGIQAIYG
MMP 3 (Enzo), sequence (chain, as listed by the source): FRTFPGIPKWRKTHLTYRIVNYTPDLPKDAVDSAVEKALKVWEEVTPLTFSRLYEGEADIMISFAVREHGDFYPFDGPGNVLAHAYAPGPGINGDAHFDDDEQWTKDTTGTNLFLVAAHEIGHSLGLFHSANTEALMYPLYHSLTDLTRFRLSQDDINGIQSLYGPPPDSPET

MMP 2 (Enzo) showed a Reader value (lateral flow, CF1522 gold) at 0.5 µg/ml MMP of 1610 reader units.

MMP 8 (Enzo) came in with a Reader value (lateral flow, CF1522 gold) at 0.5 µg/ml MMP of 1140 reader units.

In the case of Active MMP-9 (Alere San Diego), the OD405 (streptavidin plate ELISA with CF1522-AP) at 0.39 ng/ml MMP9 is 0.14 OD405, the OD405 (streptavidin plate ELISA with CF1522-AP) at 0.78 ng/ml MMP9 stood at 0.14 OD405, the OD405 (streptavidin plate ELISA with CF1522-AP) at 1.56 ng/ml MMP9 came out at 0.14 OD405 and the OD405 (streptavidin plate ELISA with CF1522-AP) at 3.13 ng/ml MMP9 came to 0.13 OD405. The substance also gave an OD405 (streptavidin plate ELISA with CF1522-AP) at 6.25 ng/ml MMP9 of 0.17 OD405, an OD405 (streptavidin plate ELISA with CF1522-AP) at 12.50 ng/ml MMP9 of 0.18 OD405, an OD405 (streptavidin plate ELISA with CF1522-AP) at 25.00 ng/ml MMP9 of 0.27 OD405 and an OD405 (streptavidin plate ELISA with CF1522-AP) at 50.00 ng/ml MMP9 of 0.5 OD405. The “detectable limit for MMP-9 (lateral flow, sample volume of 75 µl)” value is “approximately 4 ng/ml”; the reader value (lateral flow, CF1522 gold) at 0.9765625 ng/ml MMP9 came to 338 reader units; the reader value (lateral flow, CF1522 gold) at 1.953125 ng/ml MMP9 is 343 reader units; the reader value (lateral flow, CF1522 gold) at 3.90625 ng/ml MMP9 was found to be 413 reader units. The same substance showed a reader value (lateral flow, CF1522 gold) at 7.8125 ng/ml MMP9 of 524 reader units; a reader value (lateral flow, CF1522 gold) at 15.625 ng/ml MMP9 of 882 reader units; a reader value (lateral flow, CF1522 gold) at 31.25 ng/ml MMP9 of 2030 reader units; a reader value (lateral flow, CF1522 gold) at 62.5 ng/ml MMP9 of 3830 reader units. This substance also gave a reader value (lateral flow, CF1522 gold) at 125 ng/ml MMP9 of 5580 reader units; a reader value (lateral flow, CF1522 gold) at 250 ng/ml MMP9 of 6220 reader units; a reader value (lateral flow, CF1522 gold) at 500 ng/ml MMP9 of 6730 reader units; a reader value (lateral flow, CF1522 gold) at 1000 ng/ml MMP9 of 6770 reader units. Also, the “sensitivity of the MMP9 standard curves (ELISA and Lateral Flow)” value is on record as “sensitivity down to 4 ng/ml”.

With MMP 9 (Enzo), the Reader value (lateral flow, CF1522 gold) at 0.5 µg/ml MMP is 3840 reader units.

Take MMP 3 (Enzo): the Reader value (lateral flow, CF1522 gold) at 0.5 µg/ml MMP was determined as 336 reader units.

MMP 10 (Enzo) displayed a Reader value (lateral flow, CF1522 gold) at 0.5 µg/ml MMP of 444 reader units.
